Assay: purified protein yield per well (BCA); higher = higher soluble expression
Outline: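 Expression was done in E. coli C41(DE3), using 2 mL autoinduction cultures with 100 µg/mL kanamycin incubated at 37 °C for 2 h and at 18 °C for 40 h. Protein was purified on Ni-charged magnetic beads and released by SUMO protease cleavage. Yield of purified protein per well was measured with the Pierce Rapid Gold BCA kit; values below 25 ug (0.1 mg/mL) are below detection.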

| Sequence | purified protein yield per well [µg] |
| --- | --- |
| DGYERGPDPTPTRLLGNGSFSVSTTSVSSLVLGFGGGTIYYPTSTSEGTFGGVVLSPGFTATSGSYAGVARRVASHGFVVLVIDTNTIYDQPDSRGRQILDAVDYLTEDAPSAVASRLDESRIAVSGHSMGGGGTLYAADNRTSVIKTAVALQPWHTDKTWPGVDIPTMIIGAENDAIAPVSSHSIPFYASLSGAPEKAYGEVNNAGHLIANTNDDWQGRLFVSWLKRYLDEDLRYEAFLCPAPSSISLSDYRDTCPG [DP030] | < 25 |
| MRSTSTTPTASSVSGAGAFAISSATVGGGNGFGSATIYFPTDTSQGTFGGLAVSPGFTETQSALRWWAQRLATHGFVVINISTNSTFDNPSSRATQLQNALNYLVNTSSVRTRVDRTRLGVSGHSMGGGGTLEAARNNTALQAAIPLMPWDQTKSFPGILTPTMIVAGQNDTVARPSSHAIPFYNSIPDSSEKVYLELAGAGHNASNSTNPTISLFGVSWAKRYIDNGTRYEQFICPGGGSGISSYRQT [ESM152] | < 25 |
| MIYYPTDTSQGTFGAIAISPGYTALFSVELAWMGPRLASQGFVVIGIETNDRNDFDTARGTQLLAALDYLTGQSSVRSRVDPNRLAVAGHSMGGGGAFSAALRRPALKAAVGFTPFSPSQNLTNMQVPALLYSGQYDTVTTPSSVSNLYNGLPSTTEGAYIEAAGLDHSFPTRPNTLLMRTMIPWVKIFLDNDLRYTQFLCPLMDSSGVLQYRNTCPLVPPGLPSPSPTTAPPTTAPPTTAPPTTAPPTTAPPTTAPPTTAPPTTAPPSGACTATYQTIGSWPGGFQGEVTVRAGNSAINGWTVGWSLGSGQSITQIWNGTLSTSGSSVSVRNVSYNGSLPAAGTATFGFLGSGSPSTPSTVTCTSP [ESM001] | < 25 |
| LWLGLGGVLSLIGFVVIGVETNSRTDYDVARGTQLLAALDYLTQQSPVRNRVDPNRLGVIGHSMGGGGVVYATEHRPALKAAVALAPFSPSQNMSTDTVPTMVMAGQNDTVVTPSYLSGLYATMPAATQSDFLQIAGADHVYYTHPNSVEMRILIPWIKTFLDNDTRYTQVICPGLAL [TEP112] | < 25 |
| MRSDMTPEPEGTVAKAGWARSQPRPATRAVMAVAAVLALLAGLLAIGQASARSAPSAASPATTQRGPDPTVGMIEATRGPFATAQVAMPTGHGFGGGMIYYPTDTSQGTWGVLAIVPGYSALFADEEAWMGPWLSSFGFVVVGVETNTRTDSDSQRAADLLAALDYLTTQSPVRTQVDPARMAVLGHSAGGAGAIEAAEQRPSLRALIGLAPGFPGQGLSMAADTVPALIIGGQNDGTVTPSYLSSLYGTLPASTQSAFAQIAGADHVYYTHPNNVEMKLIIPWLKVFVDSDTRYTQFLCPSLPDPSTISAYQPKCPYIPPGGSSSPSSSSSSSSAPPPNSAPLHAVGAAKCLDVPNSSTTAGTQLQIYTCSNGANQLITHTGSNQLTVYSSTMCLDANNKGTTNGTKVIIWPCNGQSNQQWNLNPNGTITSAASGLCLDVTGASTANGALVQLWTCNGGSNQQWHLG [TEP169] | < 25 |
| SSVNCDSLAQIALLNPGPYSVSSLDESDNIRNGPDYAGAHIYYPTNASGSLSSIVLVPGFMNFESTLQNWGPFLAAHGIVTMTIGANYLTDSPTHRKEALLDAIVTLKAEQTRIGSPLYYSLNINNFAVGGFSMGGGGAQLAAVSDPTIKAIIALNPYLSNASEADFNHNCPVLITSGELDFIANPNLHANVHYAVTPDSTPKQLYEIQNAGHDPLIGPNGGYGEVGMKVLSWLQAFLNDNHCYCPPILTVPTTASSFTHNIVCEDLFIQGCTDSTACNYNPNATIDDGSCETQSCACPGDLNGDYAITVADVLLTLSEFGCMTNCTADIDGDGFVNVTDILELLSMFGTVC [TEP145] | < 25 |
| DSQNPYERGPVPTLESITAESGPFAIGSVTVPAGSGQGFNSGTVYYPTDTSKGTFGAIAIMPGFLASQSDIAWYGPRLASHGFVVMTLNTSALWDFPADRSRQQLAALTYLTAQSTVKNRIDPGRLAVMGWSMGGGGSLQSAASTPSLKAAIPLAPWDLSNVSSRITVPTMIFGADGDTVASVDDFARPFYNGLANAPDKSLIVLKGTDHFTFAKPNTTIARYSVSWLKRFVDNDTRYDQFLCPTPNDPNTVVLQITCPL [DP028] | < 25 |
| IENGPAPTLADLQKDGPYAVTSQVVKGSGFGGGTVYSPNTAGKYALVAVCPGFVSPQSSMTDMSKRLATHGFVVVAITTNTLFDFPSSRATQLLAALKTVAALNTGAAAGKIDITRQVVSGWSMGGGGTLEAAGVTPGLTAAVAFAPWDTATTKMKTLTVPVAIFGGTNDTIAPVSGHSQKFYDIIPATTKKMLAVITGADHFFPTKASEPTSYSNISWVKRFADGDTRYSQFLNGQDAALASFTSTGPF [ESM138] | < 25 |

Reference: the supplement of paper PMC12455559
